Test results taken from patent US20260265410A1 (UNIVERSITY OF FLORIDA RESEARCH FOUNDATION, published 2026).

T1: human CD105-ECD: amino acid residues Met 1-Gly 586 of human CD105 (Sino bio: Cat: 10149-H02H) (human, UniProt P17813 26-586)
T1 construct: Bought; also called hCD105-ECD-hFc; hCD105-hFc
T1 sequence: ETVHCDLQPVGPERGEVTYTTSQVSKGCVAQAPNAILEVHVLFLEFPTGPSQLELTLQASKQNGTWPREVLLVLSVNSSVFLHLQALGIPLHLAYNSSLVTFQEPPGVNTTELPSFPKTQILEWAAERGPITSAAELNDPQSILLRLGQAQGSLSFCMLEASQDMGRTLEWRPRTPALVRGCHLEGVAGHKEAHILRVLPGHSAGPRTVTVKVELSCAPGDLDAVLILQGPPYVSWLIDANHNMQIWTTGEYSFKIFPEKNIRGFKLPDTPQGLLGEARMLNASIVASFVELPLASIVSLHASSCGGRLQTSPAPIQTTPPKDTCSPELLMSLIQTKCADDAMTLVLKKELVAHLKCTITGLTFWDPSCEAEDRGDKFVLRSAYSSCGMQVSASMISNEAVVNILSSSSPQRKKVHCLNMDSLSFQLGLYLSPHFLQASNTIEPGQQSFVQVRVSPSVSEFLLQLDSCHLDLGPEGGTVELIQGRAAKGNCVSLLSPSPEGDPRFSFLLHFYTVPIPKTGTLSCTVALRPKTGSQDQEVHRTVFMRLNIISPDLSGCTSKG

T2: human Nectin-2 extracellular domain (amino acid residues 1-360 of human Nectin-2) fused to hFc (human, UniProt Q92692 32-360)
T2 construct: Bought; also called hNectin-2-ECD-hFc; NECTIN2-ECD-hFc; not shown: human Fc (hFc)
T2 sequence: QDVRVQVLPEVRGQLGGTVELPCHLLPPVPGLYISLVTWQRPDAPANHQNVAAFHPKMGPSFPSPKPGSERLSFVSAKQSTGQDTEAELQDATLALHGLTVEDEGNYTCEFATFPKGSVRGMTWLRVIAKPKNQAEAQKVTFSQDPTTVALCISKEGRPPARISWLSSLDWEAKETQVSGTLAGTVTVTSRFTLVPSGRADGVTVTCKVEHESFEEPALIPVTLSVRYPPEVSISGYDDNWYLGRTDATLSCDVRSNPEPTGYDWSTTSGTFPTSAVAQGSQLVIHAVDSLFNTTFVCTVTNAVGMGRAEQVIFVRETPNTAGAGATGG

T3: mouse PTPRG ECD (amino acid residues 20-733 of mouse PTPRG) fused to hFc (mouse, UniProt Q05909 20-733)
T3 construct: Produced in-house; also called mPTPRG-ECD; Mouse PTPRG-ECD-hFc; not shown: human Fc (hFc)
T3 sequence: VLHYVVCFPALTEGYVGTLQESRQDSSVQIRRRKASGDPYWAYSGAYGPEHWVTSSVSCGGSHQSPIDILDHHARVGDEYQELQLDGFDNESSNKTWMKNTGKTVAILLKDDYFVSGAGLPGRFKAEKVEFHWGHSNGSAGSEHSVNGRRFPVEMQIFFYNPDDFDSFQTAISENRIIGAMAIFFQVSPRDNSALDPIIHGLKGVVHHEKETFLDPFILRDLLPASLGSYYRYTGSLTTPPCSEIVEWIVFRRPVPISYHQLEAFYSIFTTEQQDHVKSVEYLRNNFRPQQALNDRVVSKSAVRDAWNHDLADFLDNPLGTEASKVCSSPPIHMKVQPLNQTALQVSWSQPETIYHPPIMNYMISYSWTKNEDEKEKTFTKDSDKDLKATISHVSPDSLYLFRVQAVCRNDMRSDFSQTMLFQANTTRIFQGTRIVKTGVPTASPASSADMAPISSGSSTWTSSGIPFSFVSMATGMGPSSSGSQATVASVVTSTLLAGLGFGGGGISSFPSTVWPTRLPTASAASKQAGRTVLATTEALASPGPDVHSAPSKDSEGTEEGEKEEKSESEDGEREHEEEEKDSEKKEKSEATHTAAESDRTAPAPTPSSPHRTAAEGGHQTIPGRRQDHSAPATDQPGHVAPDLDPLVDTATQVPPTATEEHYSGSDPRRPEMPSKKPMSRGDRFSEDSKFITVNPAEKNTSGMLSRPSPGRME

T4: C-terminal domain (CTD) of human PTPRG (amino acid residues 349~736 of human PTPRG) (human, UniProt P23470 349-736)
T4 construct: also called hPTPRG-CTD; human PTPRG carboxyl domain
T4 sequence: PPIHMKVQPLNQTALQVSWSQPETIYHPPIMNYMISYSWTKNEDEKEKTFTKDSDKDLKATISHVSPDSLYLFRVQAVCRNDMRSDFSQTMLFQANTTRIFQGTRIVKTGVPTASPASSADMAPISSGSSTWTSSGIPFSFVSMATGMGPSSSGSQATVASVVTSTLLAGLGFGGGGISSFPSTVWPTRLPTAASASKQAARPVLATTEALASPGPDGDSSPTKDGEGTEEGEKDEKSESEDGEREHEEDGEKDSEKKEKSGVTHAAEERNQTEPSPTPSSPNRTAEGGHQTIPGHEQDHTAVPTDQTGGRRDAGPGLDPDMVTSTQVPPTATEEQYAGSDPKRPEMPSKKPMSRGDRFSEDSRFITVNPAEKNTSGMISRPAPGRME

T5: human Nectin-2 on the cell surface (U937 cells) (human, UniProt Q92692 32-538)
T5 construct: Endogenous Nectin-2 of U937 cells; also called PVRL2; CD112
T5 sequence: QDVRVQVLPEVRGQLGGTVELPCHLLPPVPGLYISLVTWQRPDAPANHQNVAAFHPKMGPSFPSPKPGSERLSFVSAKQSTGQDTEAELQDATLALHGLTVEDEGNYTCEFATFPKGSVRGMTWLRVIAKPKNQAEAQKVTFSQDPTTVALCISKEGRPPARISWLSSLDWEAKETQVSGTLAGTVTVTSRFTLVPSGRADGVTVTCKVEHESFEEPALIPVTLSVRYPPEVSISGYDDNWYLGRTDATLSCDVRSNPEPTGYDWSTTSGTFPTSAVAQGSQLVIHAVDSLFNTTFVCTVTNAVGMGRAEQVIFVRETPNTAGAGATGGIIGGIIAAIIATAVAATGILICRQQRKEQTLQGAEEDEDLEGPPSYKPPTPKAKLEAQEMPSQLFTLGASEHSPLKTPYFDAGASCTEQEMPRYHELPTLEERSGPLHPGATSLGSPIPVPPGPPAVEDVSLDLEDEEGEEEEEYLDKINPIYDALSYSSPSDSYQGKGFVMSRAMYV

T6: human PTPRG extracellular domain (ECD) (residues 20~736 of human PTPRG) fused to hFc (human, UniProt P23470 20-736)
T6 construct: Produced in-house by transient transfection of Expi293 cells; also called hPTPRG-ECD-hFc; hPTPRG-ECD; not shown: human Fc (hFc)
T6 sequence: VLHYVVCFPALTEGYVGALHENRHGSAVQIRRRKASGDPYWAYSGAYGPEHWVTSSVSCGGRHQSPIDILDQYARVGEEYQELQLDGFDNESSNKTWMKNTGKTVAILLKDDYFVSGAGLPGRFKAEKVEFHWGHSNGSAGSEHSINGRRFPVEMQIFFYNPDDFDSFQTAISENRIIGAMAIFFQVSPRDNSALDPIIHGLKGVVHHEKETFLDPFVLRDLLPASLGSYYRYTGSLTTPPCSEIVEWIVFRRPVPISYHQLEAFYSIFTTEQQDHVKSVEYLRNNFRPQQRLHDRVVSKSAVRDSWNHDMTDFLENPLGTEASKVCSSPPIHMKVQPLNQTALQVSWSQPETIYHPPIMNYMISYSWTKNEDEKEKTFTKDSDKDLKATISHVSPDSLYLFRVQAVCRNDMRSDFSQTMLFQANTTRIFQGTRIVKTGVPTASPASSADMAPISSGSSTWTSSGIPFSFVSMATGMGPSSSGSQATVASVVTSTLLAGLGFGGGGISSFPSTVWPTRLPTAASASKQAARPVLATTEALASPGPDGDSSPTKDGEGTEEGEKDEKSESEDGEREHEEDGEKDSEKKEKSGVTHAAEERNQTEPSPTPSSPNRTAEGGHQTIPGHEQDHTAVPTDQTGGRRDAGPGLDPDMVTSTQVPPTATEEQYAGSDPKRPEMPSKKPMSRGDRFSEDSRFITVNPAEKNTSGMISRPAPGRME


Columns and labels:
[1] = target: T1, human CD105-ECD: amino acid residues …; experiment: ELISA, absorbance at 405 nm, one condition per Fab and antigen
[2] = target: T2, human Nectin-2 extracellular domain …; experiment: as above
[3] = target: T3, mouse PTPRG ECD (amino acid residues …); experiment: ELISA, one condition per Fab and antigen; y axis 0 to 1.8 without name or unit
[4] = target: T4, C-terminal domain (CTD) of human PTPRG …; experiment: as above
[5] = target: T7, human PTPRG on the cell surface (U937 cells, HEL cells) (human, UniProt P23470 20-1445); experiment: flow cytometry on whole U937 cells, screen of the 28 clones (Ctrl row = 0); PTPRG is named as the antigen on U937 cells only in the later examples
T7 construct: Endogenous PTPRG of human AML cell lines
T7 sequence (P23470 20-1445): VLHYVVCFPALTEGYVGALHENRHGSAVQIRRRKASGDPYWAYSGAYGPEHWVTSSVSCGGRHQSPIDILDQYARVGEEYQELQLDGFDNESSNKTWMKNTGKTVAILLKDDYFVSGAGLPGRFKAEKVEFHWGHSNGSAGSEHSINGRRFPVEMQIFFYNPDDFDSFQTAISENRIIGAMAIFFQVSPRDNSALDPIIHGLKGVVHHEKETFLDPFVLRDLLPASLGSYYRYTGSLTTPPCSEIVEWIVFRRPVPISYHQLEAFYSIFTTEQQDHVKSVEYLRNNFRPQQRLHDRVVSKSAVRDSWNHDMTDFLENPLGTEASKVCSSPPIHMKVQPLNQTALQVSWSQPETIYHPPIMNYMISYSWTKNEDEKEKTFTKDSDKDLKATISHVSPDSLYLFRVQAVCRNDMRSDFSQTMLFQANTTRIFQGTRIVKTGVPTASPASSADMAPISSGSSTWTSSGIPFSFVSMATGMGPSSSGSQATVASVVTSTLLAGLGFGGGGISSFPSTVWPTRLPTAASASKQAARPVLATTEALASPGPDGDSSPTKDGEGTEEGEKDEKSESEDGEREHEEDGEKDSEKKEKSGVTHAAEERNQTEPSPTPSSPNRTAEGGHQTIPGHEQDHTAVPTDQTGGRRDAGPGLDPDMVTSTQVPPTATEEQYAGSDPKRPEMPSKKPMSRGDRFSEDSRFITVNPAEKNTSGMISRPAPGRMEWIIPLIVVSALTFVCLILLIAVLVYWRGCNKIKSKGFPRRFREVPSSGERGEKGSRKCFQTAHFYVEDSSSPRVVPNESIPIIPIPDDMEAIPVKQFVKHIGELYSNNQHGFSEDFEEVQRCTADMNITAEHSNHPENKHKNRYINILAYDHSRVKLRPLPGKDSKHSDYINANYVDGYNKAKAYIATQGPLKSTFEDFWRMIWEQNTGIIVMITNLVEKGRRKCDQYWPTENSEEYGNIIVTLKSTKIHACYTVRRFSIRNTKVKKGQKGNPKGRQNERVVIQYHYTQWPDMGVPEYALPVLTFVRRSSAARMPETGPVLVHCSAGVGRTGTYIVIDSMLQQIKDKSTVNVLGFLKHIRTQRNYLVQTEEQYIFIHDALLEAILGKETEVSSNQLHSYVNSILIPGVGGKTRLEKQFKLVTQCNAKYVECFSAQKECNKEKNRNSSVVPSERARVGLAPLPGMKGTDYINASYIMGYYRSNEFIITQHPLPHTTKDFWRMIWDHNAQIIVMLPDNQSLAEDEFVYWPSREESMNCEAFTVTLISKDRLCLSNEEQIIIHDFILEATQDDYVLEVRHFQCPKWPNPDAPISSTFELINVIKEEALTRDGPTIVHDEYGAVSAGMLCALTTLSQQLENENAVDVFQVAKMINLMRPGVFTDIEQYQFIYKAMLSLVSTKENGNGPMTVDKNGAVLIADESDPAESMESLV

[6] = target: T7, human PTPRG on the cell surface (U937 …); experiment: flow cytometry on whole HEL cells, screen of the 28 clones (Ctrl row = 0); PTPRG is named as the antigen on HEL cells only in the later examples
[7] = target: T5, human Nectin-2 on the cell surface …; experiment: flow cytometry on whole U937 cells, screen of the 28 clones (Ctrl row = 0); Nectin-2 is named as the antigen on U937 cells only in the later examples
[8] = target: T6, human PTPRG extracellular domain (ECD) …; experiment: ELISA, absorbance at 405 nm, one condition per Fab and antigen

Binder	binding result [1]	binding result [2]	binding result [3]	binding result [4]	flow cytometry binding value (the table prints no name or unit) [5]	flow cytometry binding value (the table prints no name or unit) [6]	flow cytometry binding value (the table prints no name or unit) [7]	binding result [8]
Fab_130 (Fab, V domains shown, Chimeric rabbit/human Fab; also called P130; clone 130) VH: QEQQKESGGGLFKPTDTLTLTCTVSGFSLSSNAISWVRQAPGNGLEWIGAIDNSGSAYYATWAKGRSTITRATNLNTVTLKMTSVTAADTATYFCAREDVRADSIDLNMWGPGTLVTISS VL: SFVLTQPASVQVNLGQTVSLTCTADTLSRSYASWYQQKPGQAPVLLIYRDTSRPSGVPDRFSGSSSGNTATLTISGAQAGDEADYYCATSDGSGSSYQFVFGGGTQLTVTG	no binding	no binding	binds	no binding	78.3	12.6	–	–
Fab_277 (Fab, V domains shown, Chimeric rabbit/human Fab; also called N277) VH: AQSLEESGGRLVTPGTPLTLTCTASGFTLSSYHMSWVRQAPGKGLEWIGIISSGGSIYYASWAKGRFTISRTSTTVDLKMTSPTTEDTATYFCARYAAYSIGMDLWGPGTLVTVSS VL: QFVLTQPASVQVNLGQMVSLTCTADTLSRSYASWYQQKPGQAPVLLIYRDTSRPSGVPDRFSGSTSGNTATLTISGAQAGDEADYYCATDDNSGSSYQYVFGGGTQLTVTG	no binding	–	–	–	–	–	87.8	no binding
Fab_2282 (Fab, V domains shown, Chimeric rabbit/human Fab; also called N2282; mAb_2282) VH: QEQLKESGGRLVTPGTPLTLTCTASGFTISSYHMSWVRQAPGKGLEWIGVISASGGSTYYASWAKGRFTISKTSTTVDLKITSPTTEDTATYFCARESYGGYNLWGPGTLVTVSS VL: SFVLTQPASVQVNLGQMVSLTCTADTLSRSYASWYQQKPGQAPVLLIYRDTSRPSGVPDRFSGSTSGNTATLTISGAQAGDEADYYCATDDNSGSSYQYVFGGGTQLTVTG	no binding	–	–	–	–	–	92.2	no binding

More lines, now with the values ahead:

binding result [1]	binding result [2]	binding result [3]	binding result [4]	flow cytometry binding value (the table prints no name or unit) [5]	flow cytometry binding value (the table prints no name or unit) [6]	flow cytometry binding value (the table prints no name or unit) [7]	binding result [8]	Binder
no binding	no binding	binds	no binding	91.3	12.9	–	–	Fab_1955 (Fab, V domains shown, Chimeric rabbit/human Fab; also called P1955; clone 1955) VH: AQSLEESGGRLVTPGTPLTLTCTASGFSLYSYDMSWVRQAPGKGLEWIGLIDGGGNTYYASWAKGRFTISKTSSTTVDLKMTSLTTEDTATYFCARELWPAYSSGAFNIWGPGTLVTISS VL: SFVLTQPASVQVNLGQTVSLTCTADTLSRRYASWYQQKPGQAPVLLIYRDTRRPSGVPDRFSGSSSGNTATLTISGAQAGDEADYYCVTTDGSGSSYLVVFGGGTQLTVTG
no binding	no binding	–	no binding	92.9	-2.13	–	–	Fab_11 (Fab, V domains shown, Chimeric rabbit/human Fab; also called P11; mAb_11) VH: AQSLEESGGRLVTPGTPLTLTCTVSGFSLSSYAMTWVRQAPGEGLEWIGTIGAGGSPYYASWAKGRFTISKTATTVNLKIISPTTEDTATYFCAREGGGSYYFDLWGPGTLVTVSS VL: SFVLTQPASVQVNLGQTVSLTCTADTLSRSYASWYQQKPGQAPVLLIYRDTSRPSGVPDRFSGSSSGNTATLTISGAQAGDEADYYCATSDGSGSTFHFVFGGGTQLTVTG
